Here are results for 1 substance from patent US20030199679A1.

The target of experiment [1] is recombinant human TNF-alpha (human) (UniProt P01375). Put plainly: Scatchard analysis, 125I-TNF and unlabelled TNF in solution, antibody taken out with anti-IgG agarose beads.
Experiment [2] shares this target. Kind of experiment: standard assay of binding to human TNFα.

For orientation: Kd means the equilibrium constant for the complex coming apart. As for “CDP571 (CDR-grafted CB0010, grafted light chain gEU and grafted heavy chain 2hEUg) (antibody)”, the Kd was found to be 0.14 nM in experiment [1] and 0.087 nM in experiment [2].
